Experimental findings from the NTF2 design screens of Basanta et al. (2020) are described below.

The nature of the series: protease stability score; higher = more stable; yeast display proteolysis, trypsin and chymotrypsin.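 Note: relative to predicted unfolded state with 0 unfolded-like and 1 meaning tenfold more protease.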
“SEAEKRSEIILRLILHSLHTGDEHTLESLFDPNVRILIGDKELVGMEELSKLLRHIRIERVHIHLRDDRQQGDKADMDVELHRHGTFNGVRRDESSRIWIHAEKVDGRWVISEVIVH” yielded a protease stability score of 1.02. With “SEAERDAKELLELIVTTMRTGDEETLNRLMDPHTRLHVNGRDLIGRELMTEFLHEIRIEDSRTRDVRVFNGRLEVEGKLRGDWNGVEREVETRYIVEKVNGRWLLHSVTFE” the figure was 0.413.

“SEDAEYIKEFAELFFRWWITGDEEHLRSLADPHTRSDVNGRDIHGMELWSKMLLDHLTKIKNVRYTLREVRFFENHTELDMKVDINGKEMKFSIRVSLINGRLHSITVRLHSE” had a protease stability score of 1.35. Consider “SEDAKLTEELFREWLTIMLTGDWEQSLRRIDPHARLIIDGRHFHGREEFSKVVKELRFKDMIDRRIHVDENEVFVDVELRGVINGREVTIKTHILIVVIDGVIHSIEIRNR”, for which the protease stability score stood at 1.29. As for “SEDDDHSEHMYRRILELWKTGNWRLFHELLDPNTRFEIGDKEFHGREEVVEYLRRDLEKFKNIRFHIRQHEVVGNKLHIDGEIIFNGKHEHVHIILLIVDGKIKEIRFESR”, the figure is 2.72; as for “SEDDDLAKDFVSLMLHEFRTGNEESMSKLVDPHVRLHIGDKTYVGRENVSRILKKELRDYGIDHMHIDHLRVQGDKVHIHTTYRQGDKEMETHFVILKVDGKWFMHEIEIR”, 1.88; as for “SEDDDLIREFFEDWVKSVLTGDEDTIAKLADPHTRHEYGDKEHHGRDLVVEMLTFLYKHIRFEDVRLRHFDIQGNKIILHGKVEGKIDGRHRTFDVTIEVIKVNGQWLWHTIVIR”, 1.89. In turn, “SEDDDSAREILRILTEAWYTGNEDELIRLMDPNARSLFDGVEFHGRELVRLWKERVDHTHSIKVKLHSMRIIGNKLEVDGRLEQEGEINGRRFLIVVEVHLIILKVNGRWRMHSVEVR” had a protease stability score of 1.68.

For the sequence “SEDDEAVSHALHLLSEVLLTGDERTWKRLADPNVKLEFNGREFHGMEEWKRMLDHIRIDHVKIELERSDSIGDKMHTHGRLIVHTTINGVELDRITDVRFIIEKVDGRWKLTSLHIH”, the protease stability score was 1.29.

Consider “SEDDEDLKFAWDHLLRSWLTGNFDFFKEMFDPHTRLEQGEKEHHGRNAFERYLRELGIDHIKNIHIEDVEIQGDKMRLHGRQHIFVNGREINLEVTYIILKINGQWHLHRVRIK”, for which the protease stability score is 0.846. Sequence “SEDDEDNERWFERLLHSLHTGNEELTRKLMDPNVRVDFNGKDLHGMDHMVKLVRHLRNRVDHLHMLVHHSDNINGVAHNDVTLELRYGDKTERLRVRIVASKVDGRWILKSVEID” registered a protease stability score of 1.28. The sequence “SEDDEDVERAAKLMLHILRTGDERHLHEYLDPNVRSIVNGREFHGRESLLHVMTLQMRELGIDHINVRRVKYDEDEVHFFMNVNINGQHREVIFRAKKINGRWIFHEVELR” yielded a protease stability score of 1.7. As for “SEDDEEKEEYLRKELEAHRTGDWRLFRELIDPHTKIHINGVLFVGWKDATRFFKEIRVKDHKVHRVRNIDGRIEMDGELNIDIDGREDIMIVHIRAKKVNGRWIVDSVEFR”, the figure is 1.19; as for “SEDDEELEEAARRTLKIIRTGDEDLYTRLADPHDKMQIDGVETHGMEEISRWLKEHRDRFKGLKMIERRIRVTSIDGQVRVHIDTELRVDGVTQRVELNWIASKVDGRWRLERVEFIIR”, 0.745; as for “SEDDEEVRIALDIQRELFRTGDWRSIEEFLDPNVRVHVGDKEIHGMEELLRYYTHIMNHLGAKHWHVTEYTSIGDFVHIDGEFIQGDKTFHLKIHLLKFNGRWIIHSRIID”, 1.22. In turn, “SEDDEFIRFVSEIIEHILETGDEESLIKLADPNAQFIHIINGREIRYHGRHIFIEWWRRLGIDHLKIEDVRVEQQGDKMRTDFRVILRVGDKTIDSKLHFLIRKVDGKWHVESIKVEHR” came in with a protease stability score of 2.27. Sequence “SEDDEFYKHAFNLMIRVLETGDEELFTKMADPNVRSEINGQDIHGREMLSHIVLEEVRRADHIEFRIDHFRVIGDKVEHDGTKILNVNGVNIELRFHLHSVKVNGKWILKSERVD” returned a protease stability score of 0.869. The sequence “SEDDEHLREFIEIRLHAIETGDWRRMEHLFDPNVRFEFNGVELHGMETVARRLSRIDHEWSEIRINRHRLFNGVLHLDTRLDLRVHVDGKEIRVEHTTRIVILKFNGRWLITEMTIE” registered a protease stability score of 0.748. As for “SEDDEHMKEIWRILQHSLETGDFHILSRMADPNAKFDIGDKEIVGMHLWIEELLRYKNRQIRVHYHEMRVYDGKIDSRERYDVKYGDKELTTELRVHARKIDGRWVLEDVRVH”, the figure is 0.668. In the case of “SEDDEHSRDAFEIFMRLIRTGDWHHLLNLLDPHVRIDFNGREHIGREEATRILVEWRIRNIRLRHYDMVNGRAHFHTESDVEFNGRRDKIEIHMVVLKIDGRWFIHSMIIH”, the protease stability score is 2.42. Consider “SEDDEIKKHVAERWLKRLETGDEKTLSKLLDPDVRLHINGRTLHGREEVVHELHKWYYELGVDHVILRHIDHVNGQLRLHNEIRFENRHTSEILVITKVDGQWIVKYIEIRDH”, for which the protease stability score is 1.53. As for “SEDDEILERMLRELIHLIRTGDEDSIREMADPNVRLIINGKEFHGMEEYIKTWHRILERFDHLRHVELHDEHRFDGRVRIWGTLNHRIGDKHTRFTVHIVALKFNGRWILKSEEIT”, the figure is 1.36; as for “SEDDEITHYILQLWLDLVQTGDEEKLTDLHDPHVRNRINGREKHGRERAAELLSRLKKALGIDHIHRLMIEDFRIQGEKIQLHVRIKQEINGQEFTRSIELILLKINGRWSVESIDIR”, 1.42.

“SEDDEKIERWLHIILRAFETGDERILQELMDPNTRMDINGVEIHGRERVTKELHRIRKELGADHIEVRLTDEKRVNGRLRLHTQLHFHQGNKLIIIESRILFEKYDGKWMIESMSEK” came in with a protease stability score of 1.05. With “SEDDEKLEQIIELLDKVMKTGDERAYNELMDPNTRYQVGDKEFHGMEWWSEIYSRHEKKLGIEKVEVDIENHHVQGDKVTVHGRVNINGREHEYRFVLTKVDGQWRLREENIK” the figure was 1.15; with “SEDDEKLKDFLRMLIEVILTGDEERFFELLDPHARLEYGDKEFHGREVIYHWFFNEFRRIKGLVFRNIHLREHDVVDGRLQIDLEVHIIFNGKTRSHDIHFVATKIDGRWILRTESIK”, 2.33; with “SEDDEKSQEIMHRFIKYYETGDWKRLYELADPNARSYYNGKERHGMDVIRDLIEKVKNVKLHIRRIESDVQGDKINLHLDVEVDIDGQIMTLHDTVHAEKIDGRWRIRIIFLHVK”, 1.36. As for “SEDDEKVREAFELWARLVLTGDEEIIEKMVDPHMRIEIGDKELHGRDELRRWIREIRIRDIDVHDVRVQGDKAESDLKVRMDIDGVETRRHTHLIMHKFDGRWIIESIDVR”, the figure is 1.36; as for “SEDDELAHLFFELFLKLIQTGDEDKLLDLMDPNAKSEYNGVILHGREHKEHWRRRFKNIRVHYRHVEIHFQGNYLHIRIDGSLDINGQEIDSHVRLHTEKVNGKWIVRSMHFHYT”, 1.25; as for “SEDDELIKKYIKRWLHDLVTGDEDSLEELIDPNARLDINGKELIGREWVERVTKELRIEHINPRSVRSINGKVEIETEVHVNVNGVKIILDRHLDIHKVNGKWIVKEVRVK”, 1.14. The sequence “SEDDELSKHAFDMLRDSIHTGDEHLNNKLFDPHVRLYYGDKLLIGREHLTRLLFFWAKELRIELRVRHYESQGEKVDIHVELIMRVNGREQKHDVILYLEKVNGRWIMHSIEIR” had a protease stability score of 0.775.

In the case of “SEDDELVTRMFKVWLHDWITGNEEQIHRMVDPDYRLEIGDKDIHGMEASLHWLRKIKNIQFRFHLEHVDVVNGKAKSEGRYIEEFEGVKIDRDVELYLHIVDGRIKSMSIHKR”, the protease stability score was determined as 1.29. The sequence “SEDDEMLKLFFELVHRFHLTGDETNHLNNMDPHARMNAENWRRHGRHALEQLRTRFDHIDHVHLDHYETFDGRLILHVTVDGQFDGVRDRNTLHIVMKKINGRWIMEELRIQ” showed a protease stability score of 1.23. As for “SEDDEQAHRTIEIWLRASRTGNEEELERLADPHDKIEFNGREHHGREEFLKIMKHLRVHHMDVRDRTLIGDKINIDVILDLHFNGRRHIIELTTILVKINGRWFFKSWIFI”, the figure is 1.21. With “SEDDERMERLTRILLEALETGDEDALRELIDPNARVDVNGVRDHGWKEVRKLLKELGVDHIKIHDHHIQGEKSRIDGEIHFNGKSERVTILWIMINGRVKFMSVKHT” the figure was 1.79. For the sequence “SEDDERMKKLLSDIWRLLMTGDEELWAKLADPNVRVDVNGRERHGREEVVKLLRELRHERRGRREEHHTVEDFRIYGDYSEVDYRYWVVFNGQREDVTMHIHIQVVNGRLKEIEIKMR”, the protease stability score is 1.51. As to “SEDDERQRWIIEELVKTERTGDEHRRMELADPDYRLEIGDKEVHGMEEASRILHDELFNLGINHMHIKEWRVQGDKVHLEGLMVVGDKTHRVRIHYVIVNGRVKTLKWRID”, the protease stability score worked out at 1.33.

In turn, “SEDDERSEKAAEKWLHNFVTGDFKEMSDNLDPNTRLHVDGKDFVGMELVLKIFEDLWDHLGVDHVLINDSHVHVIDGKLHSHLDVTEEVNGRRRRVEIIIIAVKVNGRWRQKEVHIMFR” yielded a protease stability score of 0.794.

“SEDDERWEKFMEELERAAHTGDWRFFKKMIDPEVRIDINGKEIIGMDEYIRHEKERLKRLGHTNVDIQIIIHRTERQGDKLDVDTEIRIHIGDKTITFRMTLILIKVNGVWLIKAMIIH”: the protease stability score came to 1.56. With “SEDDESLKRHIDLLLRVLETGNEEDLFRMIDPDAKMDWNGVDNHGMELIHKVWHELGLSNVRSHTEDFRVVGDKAEIHIRVEFNGRHHRVEIHTLKINGRWRVRRFHIR” the figure was 2.4; with “SEDDETIERASRLLVEDHDTGDWESWEKNADPNMRLVIGDKDVVGRENVVEHLHRLRKKMGVKHVHLRVESIEVQGDKIRQDGRLLIIVNGQELRIEVRIVAIKVNGQWINRMVDVK”, 1.08; with “SEDDETSSKAMHRILEIFETGDWKKLAKLADPNVRLRIDGQDVHGRELFTKIFRTELERFGHEQFEVHKSHEDVQGDKLELHTLVIYGDKRERIEIHSVKFNGVWLISTMRIDRH”, 0.935. “SEDDETVIRMTHIILHAIFTGDEHITERLMDPHAKVTVGEFDTHGWEELDRFWKEMRMKRLKIRRIDFRWVNGRILSEIVVELDGIVNGRERKITMLIVIIIDKIDGRWVVTEFHFRIE” displayed a protease stability score of 1.43. Regarding “SEDDEWLHNFIERLLHTILTGDEHIFSELADPNVRLDIGDKELHGWHLIVRHYIDEFRQFKGVRVHIRIRRFTQIGDKVHYDGELIFVIGDKTIIRELHLVVVKIDGRWKLEHFEIR”, the protease stability score is 2.74. As to “SEDDEYSELFVKTWFEILRTGDEEKIRRMLDPDARSTINGKDLHGRERIEEHLHELFLRLGLSNVKVHLHDYRFIGDKLHLHGKLTINGQEFDTKVDAWKFNGRWFMHQIHLR”, the protease stability score was determined as 1.39. In turn, “SEDDHELEHAARRHFRDFWTGDWKSISRFLDPDAKVELLVNGQHIEIHGREQIIEQMLRIPNLRFELKRVHTEIYGEKMHVHVRGVVEFDGVREDVVLIFIFEKFNGRWHISKESREFR” came in with a protease stability score of 0.35. With “SEDDHELEKLIRLWYDSVLTGDERTINELFDPNTRLEINGKVLHGMENFHRFVHTFLHHIRLKRIEIEDIKYINGVAHIDSRMVGDINGKDVRYETQFLVQKVDGKWVIKAVIIR” the figure was 2.08.
